Measured values reported in patent US20040138119A1 (BURNHAM INSTITUTE, published 2004).

B4: His6-pro-Caspase-9 (enzyme)
chain: HHHHHHMDEADRRLLRRCRLRLVEELQVDQLWDALLSRELFRPHMIEDIQRAGSGSRRDQARQLIIDLETRGSQALPLFISCLEDTGQDMLASFLRTNRQAAKLSKPTLENLTPVVLRPEIRKPEVLRPETPRPVDIGSGGFGDVGALESLRGNADLAYILSMEPCGHCLIINNVNFCRESGLRTRTGSNIDCEKLRRRFSSLHFMVEVKGDLTAKKMVLALLELAQQDHGALDCCVVVILSHGCQASHLQFPGAVYGTDGCPVSVEKIVNIFNGTSCPSLGGKPKLFFIQACGGEQKDHGFEVASTSPEDESPGSNPEPDATPFQEGLRTFDQLDAISSLPTPSDIFVSYSTFPGFVSWRDPKSGSWYVETLDDIFEQWAHSEDLQSLLLRVANAVSVKGIYKQMPGCFNFLRKKLFFKTS
notes: also called recombinant pro-Caspase-9

How the values were obtained:
[1] = target: HBXIP/Survivin complex (GST-HBXIP with purified untagged Survivin) (human, UniProt O43504 1-91; O15392 1-142); test: GST pull-down, anti-Caspase-3 immunoblot
[2] = target: T1, GST-HBXIP (human, UniProt O43504 1-91); test: GST pull-down, anti-Caspase-3 immunoblot
[3] = target: T1, GST-HBXIP; test: GST pull-down, anti-Caspase-9 immunoblot
[4] = target: B4; test: GST pull-down in the presence of Survivin, anti-Caspase-9 immunoblot

B1: His6-pro-Caspase-3 (enzyme)
chain: HHHHHHMENTENSVDSKSIKNLEPKIIHGSESMDSGISLDNSYKMDYPEMGLCIIINNKNFHKSTGMTSRSGTDVDAANLRETFRNLKYEVRNKNDLTREEIVELMRDVSKEDHSKRSSFVCVLLSHGEEGIIFGTNGPVDLKKITNFFRGDRCRSLTGKPKLFIIQACRGTELDCGIETDSGVDDDMACHKIPVEADFLYAYSTAPGYYSWRNSKDGSWFIQSLCAMLKQYADKLEFMHILTRVNRKVATEFESFSFDATFHAKKQIPCIVSMLTKELYFYH
- binding result [1]: no binding
- binding result [2]: no binding

B2: active His6-Caspase-9 (lacking CARD domain) (enzyme)
chain: HHHHHHVGALESLRGNADLAYILSMEPCGHCLIINNVNFCRESGLRTRTGSNIDCEKLRRRFSSLHFMVEVKGDLTAKKMVLALLELAQQDHGALDCCVVVILSHGCQASHLQFPGAVYGTDGCPVSVEKIVNIFNGTSCPSLGGKPKLFFIQACGGEQKDHGFEVASTSPEDESPGSNPEPDATPFQEGLRTFDQLDAISSLPTPSDIFVSYSTFPGFVSWRDPKSGSWYVETLDDIFEQWAHSEDLQSLLLRVANAVSVKGIYKQMPGCFNFLRKKLFFKTS
notes: also called active Caspase-9
- binding result [3]: no binding

B3: GST-CD40 (cytosolic domain) control protein (other, UniProt P25942 216-277, looked up, not shown: a dimerising Fc or GST)
chain: KKVAKKPTNKAPHPKQEPQEINFPDDLPGSNTAAPVQETLHGCQPVTQEDGKESRISVQERQ
notes: domain: cytosolic domain
- binding result [4]: no binding

Binder: B4
- binding result [3]: no binding
